Results published in patent publication US20140135482A1 (Hoffmann-La Roche, published 2014).

Columns and labels:
[1] = target: T1, human ErbB-3 (on cells) (human, UniProt P21860 20-1342); experiment: cell-based or functional assay
[2] = target: T1, human ErbB-3 (on cells); experiment: flow cytometry on A431 cells, dilution series of the antibody, detected with PE-coupled anti-human Fc antibody
Procedure: (§1) A431 were detached and counted. 1.5×10e5 cells were seeded per well of a conical 96-well plate. Cells were spun down (1500 rpm, 4° C., 5 min) and incubated for 30 min on ice in 50 μL of a dilution series of the respective bispecific antibody in PBS with 2% FCS (fetal calf serum). Cells were again spun down and washed once with 200 μL PBS containing 2% FCS followed by a second incubation of 30 min with a phycoerythrin-coupled antibody directed against human Fc which was diluted in PBS containing 2% FCS (Jackson Immunoresearch, 109116098). Cells were spun down washed twice with 200 μL PBS containing 2% FCS, resuspended in BD CellFix solution (BD Biosciences) and incubated for at least 10 min on ice. Mean fluorescence intensity (mfi) of the cells was determined by flow cytometry (FACS Canto, BD). Mfi was determined at least in duplicates of two independent stainings Flow cytometry spectra were further processed using the FlowJo software (TreeStar). Half-maximal binding was determined using XLFit 4.0 (IDBS) and the dose response one site model 205.
(§2) The binding properties of the bispecific antibodies to their respective receptor on the cell surface was analyzed on A431 cancer cells in a flow cytometry based assay. Cells were incubated with the mono- or bispecific primary antibodies and binding of these antibodies to their cognate receptors was detected with a secondary antibody coupled to a fluorophor binding specifically to the Fc of the primary antibody. The mean fluorescence intensity of a dilution series of the primary antibodies was plotted against the concentration of the antibody to obtain a sigmoidal binding curve.

[3] = target: T2, human c-Met (on cells) (human, UniProt P08581 25-1390); experiment: as above
T2 construct: Endogenous receptor on human cell lines (A431, A549, HT29, DU145, HUVEC); also called c-Met receptor
Procedure: as §1, §2

[4] = target: T1, human ErbB-3 (on cells); experiment: flow cytometry on A431 cells, dilution series of the bispecific antibody in the presence of Fab 5D5 (its concentration is not given on the sheet), detected with PE-coupled anti-human Fc antibody
[5] = target: T3, recombinant c-Met ectodomain (ECD) (human, UniProt P08581 25-932); experiment: SPR (Biacore T100), antibody captured by anti-Fc gamma antibody, ECD in solution, 25 C
T3 construct: the whole entry for human c-Met is named; also called c-Met ECD

[6] = target: T4, recombinant Her3 ectodomain (ECD) (human, UniProt P21860 20-643); experiment: as above
T4 construct: the whole entry for human ErbB-3 is named; also called human HER3 ECD

Binder	% ErbB3 receptor on A431 cell surface measured after 2 h [1] [%]	% Internalization of ErbB3 after 2 h on A431 cells [1] [%]	other results
<ErbB3> Mab 205 (chimeric) (antibody, V domains shown) VH: QGQMQQSGAELVKPGASVKLSCKTSGFTFRSSYISWLKQKPRQSLEWIAWIYAGTGSPSYNQKFTGKAQLTVDTSSSTAYMQLSSLTSEDSAIYYCARHRDYYSNSLTYWGQGTLVTVSA VL: DIVMTQSPSSLTVTAGENVTMSCKSSQSLLNSGNQKNYLTWYQQKPGQPPKLLIYWASTRESGVPNRFTGSGSGTDFTLAISSVQAEDLSIYYCQSDYSYPYTFGQGTKLEIK	60	40	
<ErbB3> HER3 clone 29 (antibody, human IgG1, kappa, V domains shown, Monospecific bivalent parent antibody (chimeric)) VH: DVQLQESGPGLVKPSQSLSLTCSVTGYSITSAYYWNWIRQFPGNKLEWMGYISYGGSNSYAPSLKNRFSITRDTSKNQFFLKLNSVTTEDTATYYCARESDYAYFDYWGQGTTLTVSS VL: DIQMTQTTSSLSASLGDRVTISCRARQDISNYLNWYQRKPDGTVKLLIYYTSRLHSGVPSRFSGSGSGTDYSLTISNLEQEDIATYFCQQGNTFPWTFGGGTKLEIKR	44	54	EC50 (read off the curve) [2]: ~0.03 µg/mL
<ErbB3-c-Met> Her3/Met_6C (bispecific antibody, human IgG1, kappa) heavy 1: not shown heavy 2: not shown light: DIQMTQTTSSLSASLGDRVTISCRARQDISNYLNWYQRKPDGTVKLLIYYTSRLHSGVPSRFSGSGSGTDYSLTISNLEQEDIATYFCQQGNTFPWTFGGGTKLEIKRTVAAPSVFIFPPSDEQLKSGTASVVCLLNNFYPREAKVQWKVDNALQSGNSQESVTEQDSKDSTYSLSSTLTLSKADYEKHKVYACEVTHQGLSSPVTKSFNRGEC	94	6	
<ErbB3-c-Met> Her3/Met_SSKH (bispecific antibody, human IgG1, kappa) heavy 1: not shown heavy 2: not shown light: DIQMTQTTSSLSASLGDRVTISCRARQDISNYLNWYQRKPDGTVKLLIYYTSRLHSGVPSRFSGSGSGTDYSLTISNLEQEDIATYFCQQGNTFPWTFGGGTKLEIKRTVAAPSVFIFPPSDEQLKSGTASVVCLLNNFYPREAKVQWKVDNALQSGNSQESVTEQDSKDSTYSLSSTLTLSKADYEKHKVYACEVTHQGLSSPVTKSFNRGEC	89	11	
<c-Met> Mab 5D5 (antibody, human IgG1, kappa, V domains shown, Monospecific, bivalent c-Met parent antibody (humanized); also called c-Met 5D5; bivalent 5D5) VH: EVQLVESGGGLVQPGGSLRLSCAASGYTFTSYWLHWVRQAPGKGLEWVGMIDPSNSDTRFNPNFKDRFTISADTSKNTAYLQMNSLRAEDTAVYYCATYRSYVTPLDYWGQGTLVTVSS VL: DIQMTQSPSSLSASVGDRVTITCKSSQSLLYTSSQKNYLAWYQQKPGKAPKLLIYWASTRESGVPSRFSGSGSGTDFTLTISSLQPEDFATYYCQQYYAYPWTFGQGTKVEIKR			EC50 (read off the curve) [3]: ~0.06 µg/mL
<ErbB3-c-Met> Her3/Me_scFvSSKH (bispecific antibody, human IgG1, kappa) heavy 1: not shown heavy 2: not shown light: DIQMTQTTSSLSASLGDRVTISCRARQDISNYLNWYQRKPDGTVKLLIYYTSRLHSGVPSRFSGSGSGTDYSLTISNLEQEDIATYFCQQGNTFPWTFGGGTKLEIKRTVAAPSVFIFPPSDEQLKSGTASVVCLLNNFYPREAKVQWKVDNALQSGNSQESVTEQDSKDSTYSLSSTLTLSKADYEKHKVYACEVTHQGLSSPVTKSFNRGEC			EC50 (read off the curve) [4]: ~0.06 µg/mL
<ErbB3-c-Met> Her3/Met_KHSS (bispecific antibody, human IgG1, kappa, also called Her3/c-Met KHSS) heavy 1: not shown heavy 2: not shown light: DIQMTQTTSSLSASLGDRVTISCRARQDISNYLNWYQRKPDGTVKLLIYYTSRLHSGVPSRFSGSGSGTDYSLTISNLEQEDIATYFCQQGNTFPWTFGGGTKLEIKRTVAAPSVFIFPPSDEQLKSGTASVVCLLNNFYPREAKVQWKVDNALQSGNSQESVTEQDSKDSTYSLSSTLTLSKADYEKHKVYACEVTHQGLSSPVTKSFNRGEC			binding result [2]: binds
MH_TvAB21 (bispecific antibody) chain 1: not shown chain 2: not shown chain 3: DIVMTQSPSSLTVTAGENVTMSCKSSQSLLNSGNQKNYLTWYQQKPGQPPKLLIYWASTRESGVPNRFTGSGSGTDFTLAISSVQAEDLSIYYCQSDYSYPYTFGQGTKLEIKRTVAAPSVFIFPPSDEQLKSGTASVVCLLNNFYPREAKVQWKVDNALQSGNSQESVTEQDSKDSTYSLSSTLTLSKADYEKHKVYACEVTHQGLSSPVTKSFNRGEC			Kd [5]: 0.8 nM; Kd [6]: 1.8 nM
MH_TvAB22 (bispecific antibody) chain 1: not shown chain 2: not shown chain 3: DIVMTQSPSSLTVTAGENVTMSCKSSQSLLNSGNQKNYLTWYQQKPGQPPKLLIYWASTRESGVPNRFTGSGSGTDFTLAISSVQAEDLSIYYCQSDYSYPYTFGQGTKLEIKRTVAAPSVFIFPPSDEQLKSGTASVVCLLNNFYPREAKVQWKVDNALQSGNSQESVTEQDSKDSTYSLSSTLTLSKADYEKHKVYACEVTHQGLSSPVTKSFNRGEC			Kd [5]: 0.9 nM; Kd [6]: 2.1 nM
